According to patent publication US20090124791A1:

Experiments:
[1] = target: human B7.1 antigen (CD80) on cells (human) (UniProt P33681); experiment: competition on B7.1 transfected CHO cells; competitor L307.4 (FIG. 8)
[2] = target: B7.1/Ig fusion protein (human) (UniProt P33681); experiment: cell-based or functional assay
[3] = target: human B7.1 antigen (CD80), form not stated (human) (UniProt P33681); experiment: surface plasmon resonance
[4] = target: B7.1/Ig fusion protein (human) (UniProt P33681); experiment: competition of 125I-B7.1Ig binding to CD28 positive peripheral blood T lymphocytes

Chain of B7.1/Ig fusion protein (human) (P33681 35-242): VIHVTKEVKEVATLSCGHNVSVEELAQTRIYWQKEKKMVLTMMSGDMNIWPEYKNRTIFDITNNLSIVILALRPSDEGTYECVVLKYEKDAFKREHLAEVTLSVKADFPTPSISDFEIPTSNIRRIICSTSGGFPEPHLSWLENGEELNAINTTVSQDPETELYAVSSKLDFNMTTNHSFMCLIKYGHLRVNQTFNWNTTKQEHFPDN
Chain of human B7.1 antigen (CD80), form not stated (human) (P33681 35-242 limits assumed): as the sequence (P33681 35-242) above
Chain of human B7.1 antigen (CD80) on cells (human) (P33681 35-288): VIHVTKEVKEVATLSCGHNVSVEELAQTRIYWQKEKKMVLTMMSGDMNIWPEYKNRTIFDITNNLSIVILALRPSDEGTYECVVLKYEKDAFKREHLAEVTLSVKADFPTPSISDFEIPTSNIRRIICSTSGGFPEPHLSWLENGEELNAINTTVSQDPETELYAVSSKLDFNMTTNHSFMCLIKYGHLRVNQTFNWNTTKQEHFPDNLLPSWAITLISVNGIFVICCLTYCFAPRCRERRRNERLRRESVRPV

| cross-reactivity (competition) with L307.4 [1] [%] | concentration for equivalent blocking of IL-2 against CTLA-4Ig, beads anti-CD3/B7 8:1 [2] [fold] | inhibition of IL-2, CD4+ T cells with anti-CD3/B7-Ig beads (8:1) [2] [%] | Kd [3] [nM] | IC50 [4] [µg/mL] | Substance |
| --- | --- | --- | --- | --- | --- |
| 50 | – | – | – | – | BB-1 murine anti-B7 antibody |
| – | 10 | 50 to 90 | 4 | < 1 | primatized 16C10 (IDEC-114) (antibody) |
